# Data taken from patent US20220332804A1 (CSL INNOVATION, published 2022).
# Numbering of substitutions follows the chain as printed.
# T1: human complement C2 (wild type) (human, UniProt P06681 21-752)
# T1 construct: Full-length human C2 (NP_000054) with C-terminal 8x His tag, secreted from Expi293F cells and purified from the supernatant; also called WT; huC2
# T1 sequence: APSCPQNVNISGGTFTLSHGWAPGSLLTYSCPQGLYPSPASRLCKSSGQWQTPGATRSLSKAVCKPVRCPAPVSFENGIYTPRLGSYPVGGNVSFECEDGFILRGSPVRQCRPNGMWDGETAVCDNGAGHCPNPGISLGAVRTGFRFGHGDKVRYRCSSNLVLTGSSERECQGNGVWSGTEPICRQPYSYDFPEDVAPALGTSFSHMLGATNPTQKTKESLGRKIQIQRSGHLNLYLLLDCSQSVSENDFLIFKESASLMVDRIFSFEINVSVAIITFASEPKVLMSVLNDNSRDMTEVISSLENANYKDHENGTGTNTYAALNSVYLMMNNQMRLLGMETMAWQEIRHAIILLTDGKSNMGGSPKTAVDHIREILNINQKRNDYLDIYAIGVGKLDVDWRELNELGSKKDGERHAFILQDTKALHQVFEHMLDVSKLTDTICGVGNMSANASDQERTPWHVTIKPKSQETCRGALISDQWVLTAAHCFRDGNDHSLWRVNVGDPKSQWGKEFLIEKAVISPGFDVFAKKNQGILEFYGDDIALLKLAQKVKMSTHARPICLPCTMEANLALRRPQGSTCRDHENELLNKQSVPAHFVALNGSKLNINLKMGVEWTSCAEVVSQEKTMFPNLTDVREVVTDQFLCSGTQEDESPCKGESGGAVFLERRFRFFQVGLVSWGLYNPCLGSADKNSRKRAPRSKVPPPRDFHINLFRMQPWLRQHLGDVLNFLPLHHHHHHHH
# T2: human C2 D511A (human, UniProt P06681 21-752)
# T2 sequence: T1 sequence with D491A
# T3: human C2 I272A (human, UniProt P06681 21-752)
# T3 sequence: T1 sequence with I252A
# B1: RF16-226 (antibody, human IgG4 S228P, lambda)
# heavy: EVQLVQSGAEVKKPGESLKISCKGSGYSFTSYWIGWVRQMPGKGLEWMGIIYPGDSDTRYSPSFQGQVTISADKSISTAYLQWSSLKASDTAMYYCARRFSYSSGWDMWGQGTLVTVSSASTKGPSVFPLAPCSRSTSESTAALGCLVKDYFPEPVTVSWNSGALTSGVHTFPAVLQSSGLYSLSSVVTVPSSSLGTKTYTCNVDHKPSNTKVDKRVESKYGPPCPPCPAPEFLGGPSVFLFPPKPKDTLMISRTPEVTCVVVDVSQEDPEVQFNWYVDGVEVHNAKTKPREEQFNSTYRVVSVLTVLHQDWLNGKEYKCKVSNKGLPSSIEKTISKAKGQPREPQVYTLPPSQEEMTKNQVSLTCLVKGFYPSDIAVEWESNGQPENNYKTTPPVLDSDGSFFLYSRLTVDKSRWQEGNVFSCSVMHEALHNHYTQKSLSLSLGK
# light: SYELTQPPSVSVSPGQTARITCSGDALTSKYVAWYQQKSGLAPLLVIYEDTRRPSGIPAKFSGSSSGSVATLTISGAHGDDEADYYCYSTDASGHQRVFGGGTKLTVLSQPKAAPSVTLFPPSSEELQANKATLVCLISDFYPGAVTVAWKADGSPVKAGVETTKPSKQSNNKYAASSYLSLTPEQWKSHRSYSCQVTHEGSTVEKTVAPTECS
# notes: pH-dependent anti-C2 antibody from a phage display library; also called WT
# Assays:
# Assay in all cases: SPR, KD relative to WT C2;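 further: biacore SPR at 37 °C, anti-C2 mAbs captured via immobilised goat anti-human IgG, C2 alanine or serine surface mutants as analytes, 1:1 model fitted, double-referenced sensograms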
# [1] = target: T1, human complement C2 (wild type)
# human C2 D511A = target: T2, human C2 D511A
# human C2 I272A = target: T3, human C2 I272A
binder,measurement,setting,value
B1,Fold diff,[1],1 fold
same,Fold diff,human C2 D511A,3 fold
same,Fold diff,human C2 I272A,1 fold
